{
  "source": "patent US20260125457A1",
  "about": "(Janssen / Centocor, published 2026)",
  "key": {"[1]": {"molecular_target": "CALRmut on CD34+ cells isolated from CALRmut MPN patients", "experiment": "cell-based or functional assay"}, "[2]": {"molecular_target": "T1, thrombopoietin receptor (MPL) on cells without CALRmut (UniProt P40238 26-635, limits assumed)", "T1 construct": "whole, on cells; endogenous on healthy donor CD34+ cells; also called TPOR", "T1 sequence (looked up)": "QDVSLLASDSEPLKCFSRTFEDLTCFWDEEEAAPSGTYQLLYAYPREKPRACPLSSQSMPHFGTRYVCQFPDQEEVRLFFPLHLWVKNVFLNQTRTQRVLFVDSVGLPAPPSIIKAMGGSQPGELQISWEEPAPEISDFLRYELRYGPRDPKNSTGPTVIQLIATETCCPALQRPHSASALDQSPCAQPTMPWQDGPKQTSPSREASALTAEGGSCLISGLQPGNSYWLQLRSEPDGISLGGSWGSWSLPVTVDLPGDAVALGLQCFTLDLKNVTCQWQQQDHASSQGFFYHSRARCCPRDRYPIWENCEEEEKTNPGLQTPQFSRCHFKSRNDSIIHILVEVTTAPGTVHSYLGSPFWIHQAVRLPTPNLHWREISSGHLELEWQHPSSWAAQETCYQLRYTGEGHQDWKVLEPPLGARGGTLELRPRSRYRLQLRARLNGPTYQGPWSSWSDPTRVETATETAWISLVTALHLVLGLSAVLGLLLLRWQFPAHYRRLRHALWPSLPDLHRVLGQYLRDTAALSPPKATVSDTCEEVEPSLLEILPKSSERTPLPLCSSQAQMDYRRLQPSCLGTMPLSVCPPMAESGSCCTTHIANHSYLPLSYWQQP", "experiment": "flow cytometry on ELF-153 MPL cells, 1 h at 37 C, AF647 secondary antibody, Geometric Mean"}, "[3]": {"molecular_target": "T2, Flag/6xhis-CALRdel52 (CALRW12.007) (human, UniProt P27797 18-417)", "T2 construct": "also called human CALRdel52", "T2 sequence (looked up)": "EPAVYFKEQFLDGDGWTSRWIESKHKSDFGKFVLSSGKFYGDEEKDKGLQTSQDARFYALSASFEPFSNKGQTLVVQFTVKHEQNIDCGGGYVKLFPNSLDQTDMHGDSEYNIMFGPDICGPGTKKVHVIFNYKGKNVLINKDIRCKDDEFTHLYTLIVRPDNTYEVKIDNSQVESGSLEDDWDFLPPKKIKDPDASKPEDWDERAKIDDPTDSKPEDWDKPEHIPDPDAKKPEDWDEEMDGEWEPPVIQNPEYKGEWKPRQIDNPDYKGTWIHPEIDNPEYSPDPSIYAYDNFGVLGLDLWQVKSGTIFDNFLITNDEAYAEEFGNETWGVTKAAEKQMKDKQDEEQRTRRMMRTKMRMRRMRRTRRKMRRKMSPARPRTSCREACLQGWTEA", "experiment": "SPR, forced degradation: Metal Ox"}, "[4]": {"molecular_target": "T3, Avi/his-CalR-Ins5 (CALRW28.004) (human, UniProt P27797 18-417, limits assumed)", "T3 construct": "also called human CALRins5", "T3 sequence (looked up)": "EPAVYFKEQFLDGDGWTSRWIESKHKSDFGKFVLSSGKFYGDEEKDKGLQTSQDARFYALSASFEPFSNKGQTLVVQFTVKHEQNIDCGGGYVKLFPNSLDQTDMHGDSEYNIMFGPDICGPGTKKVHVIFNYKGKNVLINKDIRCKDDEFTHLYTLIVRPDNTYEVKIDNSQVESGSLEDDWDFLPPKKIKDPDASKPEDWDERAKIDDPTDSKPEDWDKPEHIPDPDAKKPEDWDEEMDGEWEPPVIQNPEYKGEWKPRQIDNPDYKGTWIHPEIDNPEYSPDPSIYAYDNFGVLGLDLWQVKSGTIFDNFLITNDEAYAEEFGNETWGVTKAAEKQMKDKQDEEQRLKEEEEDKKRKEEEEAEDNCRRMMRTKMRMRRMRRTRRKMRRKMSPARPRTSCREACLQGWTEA", "experiment": "SPR, forced degradation: Metal Ox"}, "[5]": {"molecular_target": "T4, CD3EG-HSA-6xHis (CD3W220.002) (human, UniProt P07766 22-118; P09693 23-103)", "T4 construct": "also called human CD3; not shown: human serum albumin (HSA); 6xHis tag", "T4 sequence (P07766 other isoform, or with tags, fused parts or gaps)": "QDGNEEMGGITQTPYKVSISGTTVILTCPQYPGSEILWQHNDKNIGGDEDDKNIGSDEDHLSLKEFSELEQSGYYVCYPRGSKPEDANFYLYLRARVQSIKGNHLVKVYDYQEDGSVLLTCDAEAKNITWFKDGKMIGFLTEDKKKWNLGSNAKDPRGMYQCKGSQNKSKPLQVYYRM", "experiment": "SPR, forced degradation: Metal Ox"}, "[6]": {"molecular_target": "T5, CALRins5 (mutant calreticulin, 5 base pair insertion, Type 2) expressed with MPL on engineered cancer cells (UniProt P27797 18-417)", "T5 construct": "whole, on cells; On the cell surface in complex with MPL; also called OCI-M2 MPL CALRins5", "T5 sequence (looked up)": "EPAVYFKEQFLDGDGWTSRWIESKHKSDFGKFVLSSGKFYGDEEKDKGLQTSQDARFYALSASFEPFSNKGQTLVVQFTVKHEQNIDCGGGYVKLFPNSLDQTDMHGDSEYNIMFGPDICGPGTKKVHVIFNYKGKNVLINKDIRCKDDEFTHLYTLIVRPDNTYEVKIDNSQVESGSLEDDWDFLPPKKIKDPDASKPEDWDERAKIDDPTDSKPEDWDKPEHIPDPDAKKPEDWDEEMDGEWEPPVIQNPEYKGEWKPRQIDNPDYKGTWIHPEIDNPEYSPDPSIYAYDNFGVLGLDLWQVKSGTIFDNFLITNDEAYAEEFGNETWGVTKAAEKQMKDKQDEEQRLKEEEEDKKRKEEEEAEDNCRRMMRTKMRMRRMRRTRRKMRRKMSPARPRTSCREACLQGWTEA", "experiment": "flow cytometry on ELF-153 MPL CALRins5 cells, 1 h at 37 C, AF647 secondary antibody, Geometric Mean", "procedure": "FIGS. 21A-21F depict binding of different CALRmutxCD3 bispecific antibodies to CALRmut-negative or CALRmut-positive cells. Flow cytometry was used to evaluate CALRmutxCD3 binding to CALRmut-negative and CALRmut-positive cancer cells in vitro. CALRmutxCD3 antibodies were tested on a panel of cell lines, engineered to express MPL and CALRmut, after 1 hour 37° C. incubation, with subsequent incubation with secondary AF647-labeled antibody. Geometric mean fluorescence intensity of AF647 was measured to determine antibody binding."}, "[7]": {"molecular_target": "T2, Flag/6xhis-CALRdel52 (CALRW12.007)", "experiment": "SPR, forced degradation: Release"}, "[8]": {"molecular_target": "T3, Avi/his-CalR-Ins5 (CALRW28.004)", "experiment": "SPR, forced degradation: Release"}, "[9]": {"molecular_target": "T4, CD3EG-HSA-6xHis (CD3W220.002)", "experiment": "SPR, forced degradation: Release"}, "[10]": {"molecular_target": "T5, CALRins5 (mutant calreticulin, 5 base …)", "experiment": "cell-based or functional assay"}, "[11]": {"molecular_target": "T6, CALRdel52 (mutant calreticulin, 52 base pair deletion, Type 1) expressed with MPL on engineered cancer cells (UniProt P27797 18-417)", "T6 sequence (looked up)": "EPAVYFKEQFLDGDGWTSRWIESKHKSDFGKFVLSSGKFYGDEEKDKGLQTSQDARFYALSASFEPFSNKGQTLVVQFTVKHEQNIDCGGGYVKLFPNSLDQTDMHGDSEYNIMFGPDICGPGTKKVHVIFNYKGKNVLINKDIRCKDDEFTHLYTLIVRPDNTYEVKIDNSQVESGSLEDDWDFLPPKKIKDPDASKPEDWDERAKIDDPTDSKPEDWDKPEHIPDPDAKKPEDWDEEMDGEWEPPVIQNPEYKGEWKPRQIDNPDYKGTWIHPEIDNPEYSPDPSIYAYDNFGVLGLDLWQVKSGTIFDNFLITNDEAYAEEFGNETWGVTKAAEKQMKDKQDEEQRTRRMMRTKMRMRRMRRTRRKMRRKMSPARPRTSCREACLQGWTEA", "experiment": "cell-based or functional assay"}},
  "data": [
    {"binder": "C3CRB73 CALRmut x CD3 bispecific antibody (bispecific antibody, human IgG1, kappa, L234A L235A, IgG1-AAS; also called JNJ-88549968; CALRB421 Fab x CD3 spFv) heavy: EVQLLESGGGLVQPGGSLRLSCAVSGIDLSNNAISWVRQAPGKGLEYVGVIGNTGDTYYADSAKGRFTISRDSSKTTLYLQMNSLRAEDTAVYFCVRGPPSYSSSVKNIWGQGTLVTVSSASTKGPSVFPLAPSSKSTSGGTAALGCLVKDYFPEPVTVSWNSGALTSGVHTFPAVLQSSGLYSLSSVVTVPSSSLGTQTYICNVNHKPSNTKVDKKVEPKSCDKTHTCPPCPAPEAAGGPSVFLFPPKPKDTLMISRTPEVTCVVVSVSHEDPEVKFNWYVDGVEVHNAKTKPREEQYNSTYRVVSVLTVLHQDWLNGKEYKCKVSNKALPAPIEKTISKAKGQPREPQVYTLPPSREEMTKNQVSLSCAVKGFYPSDIAVEWESNGQPENNYKTTPPVLDSDGSFFLVSKLTVDKSRWQQGNVFSCSVMHEALHNRFTQKSLSLSPGK light: DIQMTQSPSSVSASVGDRVTITCQSSQSVYNNNWLSWLQQKPGKAPKRLIYDASKLESGVPSRFSGSGSGTDFTLTISSVQPEDAATYYCAGGFTGNVYTFGGGTKVEIKRTVAAPSVFIFPPSDEQLKSGTASVVCLLNNFYPREAKVQWKVDNALQSGNSQESVTEQDSKDSTYSLSSTLTLSKADYEKHKVYACEVTHQGLSSPVTKSFNRGEC scFv: DIQMTQSPSSLSASVGDRVTITCRARQSIGTAIHWYQQKPGCAPKLLIKYASESISGVPSRFSGSGSGTDFTLTISSLQPEDFATYYCQQSGSWPYTFGQGTKLEIKGGGSGGSGGCPPCGGSGGEVQLVESGGGLVKPGGSLRLSCAASGFTFSRYNMNWVRQAPGKGLEWVSSISTSSNYIYYADSVKGRFTFSRDNAKNSLDLQMSGLRAEDTAIYYCTRGWGPFDYWGCGTLVTVSSEPKSSDKTHTCPPCPAPEAAGGPSVFLFPPKPKDTLMISRTPEVTCVVVSVSHEDPEVKFNWYVDGVEVHNAKTKPREEQYNSTYRVVSVLTVLHQDWLNGKEYKCKVSNKALPAPIEKTISKAKGQPREPQVYTLPPSREEMTKNQVSLWCLVKGFYPSDIAVEWESNGQPENNYKTTPPVLDSDGSFFLYSKLTVDKSRWQQGNVFSCSVMHEALHNHYTQKSLSLSPGK", "values": [
      {"measurement": "cytotoxicity EC50, autologous assay, patient CALRmut CD34+ cells", "setting": "[1]", "value": 0.94, "unit": "nM"},
      {"measurement": "cytotoxicity EC90, autologous assay, patient CALRmut CD34+ cells", "setting": "[1]", "value": 7.58, "unit": "nM"},
      {"measurement": "maximal cytotoxicity, autologous assay, CD34+ cells of one donor without detected binding", "setting": "[1]", "value": 68, "unit": "%"},
      {"measurement": "maximum cytotoxicity, autologous assay, patient CALRmut CD34+ cells", "setting": "[1]", "value": 69, "unit": "%"},
      {"measurement": "binding result", "setting": "[2]", "value": "no binding (tested: 100 nM)"},
      {"measurement": "% Active", "setting": "[3]", "value": 97, "unit": "%"},
      {"measurement": "Kd", "setting": "[3]", "value": 0.063, "unit": "nM"},
      {"measurement": "% Active", "setting": "[4]", "value": 94, "unit": "%"},
      {"measurement": "Kd", "setting": "[4]", "value": 0.0356, "unit": "nM"},
      {"measurement": "% Active", "setting": "[5]", "value": 91, "unit": "%"},
      {"measurement": "Kd", "setting": "[5]", "value": 0.272, "unit": "nM"},
      {"measurement": "EC50 (read off the curve)", "setting": "[6]", "value": "~2", "unit": "nM"},
      {"measurement": "% Active", "setting": "[7]", "value": 100, "unit": "%"},
      {"measurement": "Kd", "setting": "[7]", "value": 0.0602, "unit": "nM"},
      {"measurement": "% Active", "setting": "[8]", "value": 100, "unit": "%"},
      {"measurement": "Kd", "setting": "[8]", "value": 0.0331, "unit": "nM"},
      {"measurement": "% Active", "setting": "[9]", "value": 100, "unit": "%"},
      {"measurement": "Kd", "setting": "[9]", "value": 0.214, "unit": "nM"},
      {"measurement": "% CD25+ CD8 T cells EC50 (nM), CALRmut patient blood, ELF-153 MPL CALRins5", "setting": "[10]", "value": 1.68, "unit": "nM"},
      {"measurement": "% CD25+ CD8 T cells EC50 (nM), healthy donor blood, ELF-153 MPL CALRins5", "setting": "[10]", "value": 0.53, "unit": "nM"},
      {"measurement": "% CD69+ CD8 T cells EC50 (nM), CALRmut patient blood, ELF-153 MPL CALRins5", "setting": "[10]", "value": 1.08, "unit": "nM"},
      {"measurement": "% CD69+ CD8 T cells EC50 (nM), healthy donor blood, ELF-153 MPL CALRins5", "setting": "[10]", "value": 0.41, "unit": "nM"},
      {"measurement": "% CD25+ CD8 T cells EC50 (nM), CALRmut patient blood, ELF-153 MPL CALRdel52", "setting": "[11]", "value": 2.46, "unit": "nM"},
      {"measurement": "% CD25+ CD8 T cells EC50 (nM), healthy donor blood, ELF-153 MPL CALRdel52", "setting": "[11]", "value": 1, "unit": "nM"},
      {"measurement": "% CD69+ CD8 T cells EC50 (nM), CALRmut patient blood, ELF-153 MPL CALRdel52", "setting": "[11]", "value": 3.06, "unit": "nM"},
      {"measurement": "% CD69+ CD8 T cells EC50 (nM), healthy donor blood, ELF-153 MPL CALRdel52", "setting": "[11]", "value": 0.88, "unit": "nM"}
    ]}
  ]
}
